The nature of the data set: protein stability index of a GFP-peptide fusion (GPS, HEK-293T) (PSI 1-6); higher = more stable.
Where [1] appears, read: treatment: DMSO, c terminus: a fixed tail appended.
The mark [2] stands for this setting: treatment: MLN4924 1 uM, 8 h, c terminus: a fixed tail appended.

± gives the standard deviation.
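Also: 24-mer peptide tiles fused after GFP, lentivirally expressed, FACS-sorted into six equal bins by GFP/DsRed ratio, decoded by Illumina sequencing, PSI is the read-weighted mean bin number.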

As for QWILDKQDLLKERQKDLKFLSEEE [CCNC], the protein stability index under setting [1] is 4.43 ± 0.26 and the protein stability index under setting [2] turned out to be 4.53 ± 0.097.
The like results for RAGGPPRPMSEPGAGAGSSLLDVA [SMAD6] were, in that order, 4.39 ± 0.39 and 4.37 ± 0.39.
Regarding RCLVRCLLRREPAERLTATGILLH [TRIB3], the protein stability index was found to be 2.38 ± 0.43 under setting [1] and 2.44 ± 0.26 under setting [2].
Consider RDLINCCYVSRRLSQLSSHDPLWR [FBXO3], for which the protein stability index was 2.09 ± 0.28 under setting [1] and 2.31 ± 0.29 under setting [2].
The like results for RDNSPFDGPGGNLAHAFQPGPGIG [MMP1] were, in that order, 4.05 ± 0.39 and 4.03 ± 0.17.
The like results for REQMEQMKQRIAEENIMKSNIDKK [FAM50A] were, in that order, 5.08 ± 0.31 and 5.24 ± 0.11.
Consider REVRQFQFTAWPDHGVPEHPTPFL [PTPRD], for which the protein stability index was found to be 2.76 ± 0.24 under setting [1] and 2.97 ± 0.38 under setting [2].
The like results for RFDGLPAVLGFPGFSSGRHRWQVD [TRIM15] were, in that order, 2.62 ± 0.12 and 2.54 ± 0.18.
On to RFSRQCVVDKDKRNQCRYCRLKKC [HNF4A], for which the protein stability index was determined as 3.22 ± 0.46 under setting [1] and 3.5 ± 0.61 under setting [2].
In the case of RFVFADRERKKLVLENLEDSCVLT [TRIB3], the protein stability index was determined as 3.18 ± 0.16 under setting [1] and 3.37 ± 0.17 under setting [2].
Consider RGAPPPPPSRAPTAAPPPPPPSRP [WASL], for which the protein stability index reads like this: under setting [1], 5.11 ± 0.19; under setting [2], 5.17 ± 0.2.
The like results for RGLLEYFKAYIKIYQGEDLPHPKS [ATL3] were, in that order, 3.18 ± 0.84 and 2.56 ± 0.88.
The like results for RGPGASGEQPEPGEAAAGGAAEEA [ACBD3] were, in that order, 5.54 ± 0.23 and 5.62 ± 0.15.
The like results for RHIHHLGNQLQLNQHCLDTAFNFF [BRF1] were, in that order, 2.29 ± 0.23 and 2.3 ± 0.16.
As for RKRAVPCGACLTQLFFFHLFVGVD [OR3A1], the protein stability index is 2.82 ± 0.3 under setting [1] and 2.74 ± 0.45 under setting [2].
In turn, RLEKAVAAAYTFLQRNPKHELTAK [P3H4] gave a protein stability index under setting [1] of 2.32 ± 0.12 and a protein stability index under setting [2] of 2.49 ± 0.29.
Regarding RLLQAQLQAQKEELQSLMHQPKGL [PBXIP1], the protein stability index turned out to be 2.91 ± 0.14 under setting [1] and 2.9 ± 0.26 under setting [2].
The like results for RLRASFSRKPSLKGNREDSARMSA [PLEKHN1] were, in that order, 4.08 ± 0.21 and 4.21 ± 0.078.
The like results for RLSGAGPAEEAGPEGGLEEPDALD [FOXJ1] were, in that order, 5.51 ± 0.31 and 5.59 ± 0.2.
The like results for RLSSSLQGSAVTLKTSKMALSPSA [CDC14A] were, in that order, 3.5 ± 0.38 and 3.65 ± 0.32.
Regarding RNGHLATVKLLVEEKADVLARGPL [RIPK4], the protein stability index reads like this: under setting [1], 3.1 ± 0.4; under setting [2], 3.44 ± 0.19.
The like results for RNHGILMETHKELKPLLSPSSETT [LYSMD4] were, in that order, 4.49 ± 0.14 and 4.62 ± 0.3.
On to RNKIIAATIENAQPILQIDNARLA [KRT16], for which the protein stability index reads like this: under setting [1], 3.35 ± 0.13; under setting [2], 3.64 ± 0.14.
The like results for RNNANGVDLNRNFPDLNTYIYYNE [CPN1] were, in that order, 3.17 ± 0.26 and 3.14 ± 0.28.
The like results for RNTGAYTSSGLATASFRTSKYLLE [TEKT4] were, in that order, 3.1 ± 0.26 and 3.16 ± 0.22.
RPGGGRVKIESVKLDFKEKAQAKV [MAP2] came in with a protein stability index under setting [1] of 4.06 ± 0.3 and a protein stability index under setting [2] of 4.01 ± 0.25.
The like results for RQDLEDRYAEHVAATQALPQDSGT [C22orf31] were, in that order, 5.4 ± 0.17 and 5.46 ± 0.3.
The like results for RQGPKEPPRKSGSFHSSGEKQKQP [PBXIP1] were, in that order, 4.86 ± 0.27 and 5.17 ± 0.15.
The like results for RQLAYSTVGTPDYIAPEVFMQTGY [STK38L] were, in that order, 3.06 ± 0.46 and 3.29 ± 0.42.
With RRCGELKRKLGLTALVGLRQNLSK [TPD52L3], the protein stability index by setting is: under setting [1], 2.41 ± 0.34; under setting [2], 2.57 ± 0.16.
Turning to RRCTNIRPGETGMDVTSRCTLGDP [KLHL20], the protein stability index stood at 3.99 ± 0.24 under setting [1] and 4.13 ± 0.21 under setting [2].
The like results for RRGRSPKGEFKDEEETVTTKHIHI [CLINT1] were, in that order, 4.78 ± 0.14 and 4.73 ± 0.26.
The like results for RRLAQEPLGLEVDQFLEDVRLQER [NOP53] were, in that order, 4.5 ± 0.16 and 4.54 ± 0.13.
The like results for RRSSLVITTKIFWGGKAETERGLS [KCNAB2] were, in that order, 2.09 ± 0.42 and 2.15 ± 0.29.
Consider RSETFLEVWGNALLRPPVAAFVRA [DNAAF3], for which the protein stability index is, setting by setting: under setting [1], 2.22 ± 0.21; under setting [2], 2.34 ± 0.13.
The like results for RSFKEELLCAVCYDPFRDAVTLRC [TRIM35] were, in that order, 2.58 ± 0.63 and 2.61 ± 0.61.
The like results for RSFSDKQKISLLHSCTCVLYTPSN [ALG2] were, in that order, 2.17 ± 0.28 and 2.1 ± 0.32.
The like results for RSRIEALELLGASFANDRENYDII [FEM1B] were, in that order, 3.42 ± 0.27 and 3.52 ± 0.14.
Regarding RSTCNVVQDEFLDTPCTNRGLPLL [DLC1], the protein stability index worked out at 3.21 ± 0.27 under setting [1] and 3.21 ± 0.42 under setting [2].
As to RSVEEAPVYSVPQLLSAMGSLCSL [SCNN1D], the protein stability index under setting [1] amounted to 2.44 ± 0.16 and the protein stability index under setting [2] stood at 2.59 ± 0.4.
The like results for RTIRHVYCKTSDGRVVPESQCQME [ADAMTSL2] were, in that order, 4.08 ± 0.16 and 4.09 ± 0.31.
Consider RTLWSGLPATLVMTVPATAIYFTA [SLC25A39], for which the protein stability index was 3.07 ± 0.42 under setting [1] and 3.1 ± 0.68 under setting [2].
The like results for RVAHEPVAPPEDKESESEAKVDGE [CDS2] were, in that order, 5.47 ± 0.21 and 5.63 ± 0.27.
Consider RVHAGSKAALAALCPGDLIQAING [PDLIM4], for which the protein stability index turned out to be 2.95 ± 0.15 under setting [1] and 3.03 ± 0.12 under setting [2].
The like results for RVKREFEPASAREAPASVVPFVRV [USP39] were, in that order, 3.33 ± 0.57 and 3.5 ± 0.24.
The like results for RWKRRRSYSREHEGRLRYPSRREP [CLK3] were, in that order, 3.86 ± 0.39 and 4.14 ± 0.36.
The like results for RWSRVGGQRFYSRVLSPLHRGPSG were, in that order, 2.9 ± 0.27 and 2.72 ± 0.42.
For RYEPDSKAFGVGVAYRSLGRFEQL [FSD1], the protein stability index by setting is: under setting [1], 2.48 ± 0.38; under setting [2], 2.63 ± 0.33.
The like results for SAEQLKAQAIDFINRCSVLRQLGC [SPOPL] were, in that order, 2.21 ± 0.33 and 2.51 ± 0.28.
The like results for SAFTAAHELGHVFNMLHDNSKPCI [ADAMTS4] were, in that order, 2.93 ± 0.094 and 3 ± 0.19.
Regarding SAGIAKLEEGDELQLAIPRENAQI [TNFSF13B], the protein stability index was determined as 5.08 ± 0.25 under setting [1] and 4.97 ± 0.23 under setting [2].
The like results for SAIVLGDLKLRKFVFSTEERTQLR [TRIB1] were, in that order, 2.77 ± 0.48 and 2.92 ± 0.29.
The like results for SALFAGNEWRRPIIQFVESGDDKN [TRIM29] were, in that order, 4.37 ± 0.23 and 4.13 ± 0.25.
On to SASHYKLQVIKALKSSGLCESLTY [M1AP], for which the protein stability index came out at 2.03 ± 0.41 under setting [1] and 2.25 ± 0.59 under setting [2].
The like results for SCKEGLSPRGPAPGEEKFENLEGV [ZNF263] were, in that order, 5.37 ± 0.16 and 5.23 ± 0.36.
The like results for SDDLERTIEERVNILFDFVKKKKE [EIF5] were, in that order, 3.97 ± 0.19 and 4.2 ± 0.32.
For SDENGGTYVSPPGNEEEESKIFTT [DDIT3], the protein stability index amounted to 5.53 ± 0.36 under setting [1] and 5.49 ± 0.31 under setting [2].
The like results for SEAKADKILAEAAKLVPMGFTTAT [RAD51] were, in that order, 3.93 ± 0.25 and 3.93 ± 0.13.
The like results for SEASKAFQMEKIEHGYENMNHFTV [TRIM55] were, in that order, 3.29 ± 0.21 and 3.38 ± 0.28.
The like results for SEAWEYFHLAPARAGHHPNQYATC [ZBED2] were, in that order, 2.59 ± 0.26 and 2.58 ± 0.23.
As to SEDMWGDEDFTFGAYQPTVVSSEG [FBF1], the protein stability index by setting is: under setting [1], 4.53 ± 0.23; under setting [2], 4.84 ± 0.23.
With SFAILRIIRLVRVFRIFKLSRHSK [KCNA4], the protein stability index under setting [1] was determined as 2.2 ± 0.4 and the protein stability index under setting [2] came to 2.44 ± 0.15.
Take SFSGKVFPFFAVWKKGSCLTLKG [TRIM15]: the protein stability index reads like this: (treatment: DMSO, c terminus: native) 3.25 ± 0.88; (treatment: MLN4924 1 uM, 8 h, c terminus: native) 2.92 ± 0.61.
With SGSDSGGSSSSSSSSINSPDRASG [FAM104A], the protein stability index under setting [1] is 5.36 ± 0.33 and the protein stability index under setting [2] was 5.47 ± 0.11.
The like results for SGVVRIWDLRDQSVVRDLKGYPDG [TLE6] were, in that order, 3.3 ± 0.31 and 3.42 ± 0.23.
The like results for SHRVVLRPRGKERHKSGVHQPPQA [LYSMD4] were, in that order, 3.91 ± 0.2 and 3.98 ± 0.3.
The like results for SIPVTELSASGPFESHDLLRKGFS [POMP] were, in that order, 3.5 ± 0.25 and 3.39 ± 0.34.
With SKIPFKILSGHEHAVSTCHFCVDD [WDR88], the protein stability index under setting [1] worked out at 2.91 ± 0.25 and the protein stability index under setting [2] was determined as 3.07 ± 0.26.
In the case of SKSKEEVSSLISEKTNGATPLLMA [FEM1C], the protein stability index runs as follows: under setting [1], 4.26 ± 0.42; under setting [2], 4.49 ± 0.24.
The like results for SLFCLEDKELLCCSCQADPRHQGH [TRIM35] were, in that order, 3.06 ± 0.16 and 3.35 ± 0.4.
The like results for SLGVDTLPPPDPNPPRAEFNYSVG [APBB1IP] were, in that order, 4.1 ± 0.31 and 4.44 ± 0.22.
The like results for SLLSLPVWVLMDEDVRIFFYQSPY [NCF4] were, in that order, 2.56 ± 0.24 and 2.66 ± 0.47.

Source of the values: the supplement of paper PMC10567573.
